Biological target: Vpr-Gal4AD chimeric protein (UniProt P12520)

Row | Substance | beta-galactosidase activity, liquid culture of double transformant yeast, relative to wild type UDG-Gal4BD
1 | UDG-Gal4BD chimeric protein UDG F225G | exhibited only 7% of the ability to interact with Vpr-Gal4AD chimeric protein
2 | UDG-Gal4BD chimeric protein UDG W222G | exhibited less than half (43%) of the ability to interact with Vpr-Gal4AD chimeric protein
